Consider five molecules from publication PMC10916992, “APOE Christchurch‐mimetic therapeutic antibody reduces APOE‐mediated toxicity and tau phosphorylation” (Alzheimer's & Dementia, 2023).

The Kd is the constant that tells how readily two partners part at equilibrium.

The target of assay [1] is Recombinant His-tagged full-length human ApoE4 (human, UniProt P02649 19-317, Cys112 → Arg112). Kind of assay: SPR. (SPR reads the build-up and loss of mass on a sensor chip optically.)
Assay [2] has as its target T1, Recombinant His-tagged full-length human ApoE4 (Homo sapiens, ApoE4 (C112R mature), UniProt P02649, Cys112 → Arg112).
T1 construct: Apolipoprotein E, human, isoform E4; their rows are written on this molecule; source: E. coli-derived, His-tagged, fee-for-service by Innovagen
The experiment in a line: SPR; Biacore 3000, PBS; the Fab injected at various concentrations (methods; the legend says ApoE4 over immobilised Fab); contact 120 s, dissociation 240 s, 30 μL/min; KD from ka and kd. To be noted: both partners purified.
Target sequence in this assay (P02649 other isoform, or with tags, fused parts or gaps Cys112 → Arg112 | Cys112 → Arg112): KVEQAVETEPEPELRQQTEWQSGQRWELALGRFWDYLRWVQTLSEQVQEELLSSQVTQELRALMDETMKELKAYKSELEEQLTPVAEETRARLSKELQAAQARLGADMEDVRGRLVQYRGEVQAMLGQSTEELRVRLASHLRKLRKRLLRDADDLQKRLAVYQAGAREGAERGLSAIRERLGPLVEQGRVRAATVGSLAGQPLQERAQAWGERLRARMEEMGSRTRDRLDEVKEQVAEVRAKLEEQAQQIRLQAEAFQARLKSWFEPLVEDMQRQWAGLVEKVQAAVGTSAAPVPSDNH

For assay [3], the target named is T2, Recombinant His-tagged full-length human ApoE3 (Homo sapiens, ApoE3, UniProt P02649).
T2 construct: Apolipoprotein E, human, isoform E3 (C112, R158); ELISA used the Innovagen protein; their rows are written on this molecule; A recombinant 'full-length' ApoE from E. coli is probably the mature protein without signal peptide (surmise); also called ApoE3 FL; WT ApoE; source: E. coli-derived, His-tagged, fee-for-service by Innovagen
Kind of assay: ELISA; ApoE variants or peptides coated (0.0025 μg/μL in TBS with 2 mM CaCl2, 16 h 4°C); serial dilutions of purified monoclonal antibodies (0.01 to 6.7 nM in the isoform panel), 2 h RT or 16 h 4°C; HRP secondary. To be noted: both partners purified.
Target sequence in this assay (P02649 19-317): as the sequence (P02649 other isoform, or with tags, fused parts or gaps Cys112 → Arg112 | Cys112 → Arg112) above, with R112C counted along it

Assay [4] has as its target T3, ApoE3 in post mortem human brain tissue (APOEε3/ε3 PSEN1 E280A carrier) (Homo sapiens, ApoE3, UniProt P02649).
T3 construct: Apolipoprotein E, human, isoform E3; source: endogenous, post mortem human middle temporal gyrus, formalin-fixed paraffin-embedded sections
Kind of assay: immunostaining of cells or tissue; formalin-fixed paraffin-embedded middle temporal gyrus sections of PSEN1 E280A carriers of different APOE genotypes; 1H4 0.012 μg/μL, 7C11 0.041 μg/μL, 19G 0.072 μg/μL overnight 4°C; HRP detection; not quantified. To be noted: one partner purified.

The target of assay [5] is T4, Recombinant His-tagged full-length human ApoE2 (Homo sapiens, ApoE2 (R158C mature), UniProt P02649, Arg158 → Cys158).
T4 construct: Apolipoprotein E, human, isoform E2; its rows are written on this molecule; source: E. coli-derived, His-tagged, fee-for-service by Innovagen
The experiment in a line: BLI; OCTET RED 96, 25°C; ApoE variants immobilised on anti-penta-His (HS1K) sensors; 7C11.mAb in solution, titrated. The note with it: both partners purified. A general note: BLI is a label-free optical method that tracks binding on a fibre tip over time.
Target sequence in this assay (P02649 other isoform, or with tags, fused parts or gaps Arg158 → Cys158 | Arg158 → Cys158): as the sequence (P02649 other isoform, or with tags, fused parts or gaps Cys112 → Arg112 | Cys112 → Arg112) above, with R112C, R158C counted along it

Assay [6] deals with T1, Recombinant His-tagged full-length …. The assay is described as above. The note with it: both partners purified.
Target sequence in this assay (P02649 other isoform, or with tags, fused parts or gaps Cys112 → Arg112 | Cys112 → Arg112): as the sequence (P02649 other isoform, or with tags, fused parts or gaps Cys112 → Arg112 | Cys112 → Arg112) above
For assay [7], the target named is T2, Recombinant His-tagged full-length …. The assay is described as above. To be noted: both partners purified.
Target sequence in this assay (P02649 19-317): as the sequence (P02649 other isoform, or with tags, fused parts or gaps Cys112 → Arg112 | Cys112 → Arg112) above, with R112C counted along it
Assay [8] concerns the target T4, Recombinant His-tagged full-length …. The experiment in a line: BLI; OCTET RED 96, 25°C; msIgG1 7C11.mAb loaded on anti-mouse Fc (AMC) sensors at 20 μg/mL; ApoE variant in solution (200 nM), PBS + 0.1% BSA. The note with it: both partners purified.
Assay [9] has as its target T1, Recombinant His-tagged full-length …. The description is as above. To be noted: both partners purified.
Assay [10] addresses T2, Recombinant His-tagged full-length …. The assay is described as above. To be noted: both partners purified.
The target in assay [11] is T1, Recombinant His-tagged full-length …. The experiment in a line: BLI; OCTET RED 96, 25°C; 7C11ch.IgG1 loaded on anti-human IgG Fc (AHC) sensors at 20 μg/mL; ApoE4 in solution (200 nM), PBS + 0.1% BSA. To be noted: both partners purified.
The target in assay [12] is T2, Recombinant His-tagged full-length …. Kind of assay: ELISA; ApoE peptide or full-length protein coated on the plate; serial dilutions of hybridoma cell supernatants; TBS with 2 mM CaCl2, 3% BSA block. The note with it: one partner purified. In general terms: In an ELISA, binding on a coated surface is turned into a signal by an enzyme label.
Target sequence in this assay (P02649 19-317): as the sequence (P02649 other isoform, or with tags, fused parts or gaps Cys112 → Arg112 | Cys112 → Arg112) above, with R112C counted along it

Where only a bound is given, the exact number is not on record here.

Sequence of Recombinant His-tagged full-length human ApoE4 (human, UniProt P02649 19-317, Cys112 → Arg112) (P02649 other isoform, or with tags, fused parts or gaps Cys112 → Arg112): as the sequence (P02649 other isoform, or with tags, fused parts or gaps Cys112 → Arg112 | Cys112 → Arg112) above
T3 sequence (P02649 19-317, stated change not applied): as the sequence (P02649 other isoform, or with tags, fused parts or gaps Cys112 → Arg112 | Cys112 → Arg112) above, with R112C counted along it

B1: 7C11-Fab (recombinant Fab fragment of the 7C11.chIgG1 antibody) (Fab, V domains shown)
VH: EVKLVESGGGLVQPGGSLKLSCAASGFTFSRYTMSWVRQTPEKRLEWVAKIRNVGGITYYPDTVKGRFTISRDNAKNTLYLQMSSLKSEDTAMYYCARHYYGSEDYFDYWGQGTTLTVSS
VL: DNVLTQSPASLAVSLGQRATISCKASQSVDYDGDSYMNWYQQKPGQPPKVFIYAASNLESGIPARFSGSGSGTNFTLNIHPVEEEDAATYYCQQSNEDPWTFGGGTKLEIK
notes: VH CDR-1 of 7C11; VH CDR-2 of 7C11; VH CDR-3 of 7C11; VL CDR-1 of 7C11; VL CDR-2 of 7C11; VL CDR-3 of 7C11; also called Fab-7C11; 7C11.IgGFab; source: recombinant, purified, fee-for-service by Creative BioStructure
With B1, the figures for the Kd in [1] and in assay [2] were 25.1 nM and ~10 nM, respectively.

B2: 1H4.mAb (mouse monoclonal anti-ApoE antibody) (antibody, V domains shown)
VH: EVKLVESGGGVVQPGGSLKLSCAASGFTFSSYTMSWVRQTPEKRLEWVAKIRNGGGITYYLDTLKGRFTISRDNAKNTLYLQMSSLKSEDTAIYFCARHYYGSEDYFDYWGQGTTLTVSS
VL: DNVLTQSPASLAVSLGQRATISCKASQSVDYDGDSYMNWYQQKPGQPPKVFIYAASNLESGIPARFSGSGSGTDFTLNIHPVEEEDAATYYCQQSNEDPWTFGGGTKLEIK
notes: VH CDR-1; VH CDR-2; VH CDR-3; VL CDR-1; VL CDR-2; VL CDR-3; Raised against the ApoE peptide; also called 1H4.Ab; source: hybridoma supernatant (1H4.Ab) and purified monoclonal antibody (1H4.mAb), fee-for-service by Innovagen
For the molecule B2, the binding result in assay [3] and in [4] was “binds” each time.

B3: 7C11.mAb (mouse monoclonal anti-ApoE antibody, msIgG1) (antibody, V domains shown)
VH: EVKLVESGGGLVQPGGSLKLSCAASGFTFSRYTMSWVRQTPEKRLEWVAKIRNVGGITYYPDTVKGRFTISRDNAKNTLYLQMSSLKSEDTAMYYCARHYYGSEDYFDYWGQGTTLTVSS
VL: DNVLTQSPASLAVSLGQRATISCKASQSVDYDGDSYMNWYQQKPGQPPKVFIYAASNLESGIPARFSGSGSGTNFTLNIHPVEEEDAATYYCQQSNEDPWTFGGGTKLEIK
notes: VH CDR-1; VH CDR-2; VH CDR-3; VL CDR-1; VL CDR-2; VL CDR-3; Mouse IgG1; also called 7C11.Ab; ms.7C11-Ab; source: hybridoma supernatant (7C11.Ab) and purified monoclonal antibody (7C11.mAb), fee-for-service by Innovagen
In the case of B3, the Kd was 7.41 nM in [5]; 6.07 nM in assay [6]; 16.8 nM in assay [7]; 28.1 nM in assay [8]; < 0.001 nM in assay [9]; 5.14 nM in assay [10].

B4: 7C11.chIgG1 (chimeric mouse-human IgG1 7C11 antibody) (antibody, V domains shown)
VH: EVKLVESGGGLVQPGGSLKLSCAASGFTFSRYTMSWVRQTPEKRLEWVAKIRNVGGITYYPDTVKGRFTISRDNAKNTLYLQMSSLKSEDTAMYYCARHYYGSEDYFDYWGQGTTLTVSS
VL: DNVLTQSPASLAVSLGQRATISCKASQSVDYDGDSYMNWYQQKPGQPPKVFIYAASNLESGIPARFSGSGSGTNFTLNIHPVEEEDAATYYCQQSNEDPWTFGGGTKLEIK
notes: VH CDR-1 of 7C11; VH CDR-2 of 7C11; VH CDR-3 of 7C11; VL CDR-1 of 7C11; VL CDR-2 of 7C11; VL CDR-3 of 7C11; Human IgG1 constant regions; also called chimeric 7C11 antibody; 7C11 human chimeric antibody; source: human chimeric antibody produced as fee-for-service by Innovagen
Consider B4, for which the Kd in assay [11] was < 0.001 nM.

B5: 25F.mAb (mouse monoclonal anti-ApoE3Ch antibody, clone 25F1-2) (antibody, V domains shown)
VH: EVQLQQSGAELVRPGALVKWSCKASGFNIKDYHIHWVKQRPEQGLDWIGWIDPEIDKTLYDPKFQGKARITADTSSNTAYLQLSSLTSEDTAVYYCARGTARASFDYWGQGTTLTVSS
VL: DIVLTQSPASLAVSLGQRATISCKASQSVDYDGDTYMNWYQQKPGQPPKLLIYTASNLESGIPARFSGSGSGTDFTLNIHPVEEVDAATYYCQQSNEDPWTFGGGTKLEIK
notes: VH CDR-1; VH CDR-2; VH CDR-3; VL CDR-1; VL CDR-2; VL CDR-3; Raised against the ApoECh peptide; also called 25F.Ab; source: hybridoma supernatant (25F.Ab) and purified monoclonal antibody (25F.mAb), fee-for-service by Innovagen
Regarding B5, the binding result in assay [12] is reported as “binds”.
